Data set [1] deals with cGAS (human, UniProt Q8N884 1-522).
Data set [2] addresses T1, N protein (unphosphorylated, lambda-phosphatase treated) (SARS-CoV-2 (isolate Wuhan-Hu-1), UniProt P0DTC9 1-419). In words: MST; apparent; Hill nH = 1.6 +/- 0.1. The note with it: protein: recombinant; tags: His6-MBP tag cleaved (3C); linker remnant possible; chain copies: 2; label: Cy5 at 5' end of forward strand; blunt.
Data set [3] addresses T1, N protein (unphosphorylated, …). Put plainly: MST; apparent; Hill nH = 1.7 +/- 0.4. The following applies: protein: recombinant; tags: His6-MBP tag cleaved (3C); linker remnant possible; chain copies: 2; stem loop.
The target of data set [4] is biotin-AviTag-cGASCD (human, UniProt Q8N884 158-522). Put plainly: BLI; N protein first adds signal, then accelerates dissociation. The note with it: protein: recombinant; tags: AviTag, biotinylated; blunt.

B1: 50-bp DNA-Cy5 (dsDNA)
DNA 1: GATCTCTTGTAGATCTGTTCTCTAAACGAACTTTAAAATCTGTGTGGCTG
DNA 2: CAGCCACACAGATTTTAAAGTTCGTTTAGAGAACAGATCTACAAGAGATC
Consider B1, for which, in data set [1], the binding result is “binds”. Further, the Kd in data set [2] was 6.3 ± 0.3 nM.

B2: 50-bp DNA (label-free) (dsDNA)
DNA 1: GATCTCTTGTAGATCTGTTCTCTAAACGAACTTTAAAATCTGTGTGGCTG
DNA 2: CAGCCACACAGATTTTAAAGTTCGTTTAGAGAACAGATCTACAAGAGATC
With B2, the binding result in data set [1] is “binds”.
As for GAUCUCUUGUAGAUCUGUUCUCUAAACGAACUUUAAAAUCUGUGUGGCUG (ssRNA) [50-nt RNA-Cy5], the Kd in data set [3] was determined as 3 ± 0.4 nM.

B3: 45-bp DNA (ISD) (dsDNA)
DNA 1: TACAGATCTACTAGTGATCTATGACTGATCTGTACATGATCTACA
DNA 2: TGTAGATCATGTACAGATCAGTCATAGATCACTAGTAGATCTGTA
Consider B3, for which, in data set [4], the binding result is recorded as “binds”.

For the origin of these results see paper PMC12232725.
